Data taken from CN115536747A.

Biological target: 人TROP2 on cells (表达TROP2的CHO细胞系; MCF, MDA-MB-231, MDA-MB-468, HCC1395 breast cancer cells) (human) (UniProt P09758)
Experiment: flow cytometry, scFv-Fc on CHO cells expressing TROP2

Chain of UniProt P09758 (P09758 27-323): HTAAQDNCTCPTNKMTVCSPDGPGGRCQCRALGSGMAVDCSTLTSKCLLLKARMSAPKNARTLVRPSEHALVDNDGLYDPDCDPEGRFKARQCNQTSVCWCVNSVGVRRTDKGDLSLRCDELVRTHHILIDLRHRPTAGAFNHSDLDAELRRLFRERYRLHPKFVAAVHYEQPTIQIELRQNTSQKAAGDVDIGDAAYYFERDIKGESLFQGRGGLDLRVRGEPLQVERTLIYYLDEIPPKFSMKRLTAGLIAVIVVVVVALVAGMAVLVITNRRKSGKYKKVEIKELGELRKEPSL

B1: 1F7 scFv-Fc蛋白 (from pFH-1F7; scFv fused to human IgG4 Fc) (Fc fusion, not shown: a dimerising Fc or GST)
chain: QVQLVQSGAEVKKPGASVKVSCKASGYTFTSYGINWVRQATGRGLEWMGWMNPNSGNTGYAQKFQGRVTITADESTSTAYMELSSLRSEDTAVYYCARPNTGGDGAFDIWGQGTMVTVSSGGSSRSSSSGGGGSGGGGDIQLTQSPSSVSASVGDRVTITCRASQGISSWLAWYRQKPGKAPKLLIYAASSLQSGVPSRFSGSGSGTDFTLTISSLQPEDFATYYCQQANSFPITFGQGTRLEIK
With B1 the 阳性百分数 was 89.3%.
